# Results from patent US20260109776A1 (Amgen, published 2026).
# T1: human TNFR1 (human, UniProt P19438 30-455)
# T1 construct: whole, on cells
# T1 sequence (looked up): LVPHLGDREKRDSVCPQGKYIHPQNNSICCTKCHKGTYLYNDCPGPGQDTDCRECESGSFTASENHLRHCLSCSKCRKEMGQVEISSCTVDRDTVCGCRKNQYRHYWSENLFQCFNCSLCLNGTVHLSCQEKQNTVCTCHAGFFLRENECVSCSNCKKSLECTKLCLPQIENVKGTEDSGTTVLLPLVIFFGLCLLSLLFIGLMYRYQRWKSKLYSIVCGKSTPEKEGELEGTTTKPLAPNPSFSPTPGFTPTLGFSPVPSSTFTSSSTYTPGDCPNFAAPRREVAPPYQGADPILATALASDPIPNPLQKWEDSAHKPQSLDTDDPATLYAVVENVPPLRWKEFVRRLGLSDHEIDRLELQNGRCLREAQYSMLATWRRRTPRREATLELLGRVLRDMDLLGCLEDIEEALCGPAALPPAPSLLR
# T2: cynomolgus monkey CD40 on cells (cynomolgus monkey, UniProt P25942 21-277 (human entry))
# T2 construct: also called cyno CD40 on HEK293 cells; CD40 on cynomolgus monkey B cells
# T2 chain: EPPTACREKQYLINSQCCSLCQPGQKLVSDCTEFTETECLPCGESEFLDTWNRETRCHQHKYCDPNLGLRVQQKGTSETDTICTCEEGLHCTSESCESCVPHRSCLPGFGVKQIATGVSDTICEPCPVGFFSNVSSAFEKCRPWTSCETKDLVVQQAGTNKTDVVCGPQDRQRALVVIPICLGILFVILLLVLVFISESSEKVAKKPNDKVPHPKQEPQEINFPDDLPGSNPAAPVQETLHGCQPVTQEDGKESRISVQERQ
# T3: human TNFR14 (human, UniProt Q92956 39-283)
# T3 construct: whole, on cells
# T3 sequence (looked up): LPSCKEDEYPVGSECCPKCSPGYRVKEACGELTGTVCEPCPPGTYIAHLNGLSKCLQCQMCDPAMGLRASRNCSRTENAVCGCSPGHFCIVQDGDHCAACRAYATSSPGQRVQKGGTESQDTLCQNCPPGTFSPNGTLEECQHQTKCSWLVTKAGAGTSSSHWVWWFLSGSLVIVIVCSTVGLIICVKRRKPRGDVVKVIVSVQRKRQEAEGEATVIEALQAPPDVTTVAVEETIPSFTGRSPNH
# T4: mouse CD40 on cells (mouse, UniProt P27512 20-289)
# T4 construct: whole, on cells; also called mouse CD40 on HEK293 cells; CD40 on mouse B cells
# T4 sequence (looked up): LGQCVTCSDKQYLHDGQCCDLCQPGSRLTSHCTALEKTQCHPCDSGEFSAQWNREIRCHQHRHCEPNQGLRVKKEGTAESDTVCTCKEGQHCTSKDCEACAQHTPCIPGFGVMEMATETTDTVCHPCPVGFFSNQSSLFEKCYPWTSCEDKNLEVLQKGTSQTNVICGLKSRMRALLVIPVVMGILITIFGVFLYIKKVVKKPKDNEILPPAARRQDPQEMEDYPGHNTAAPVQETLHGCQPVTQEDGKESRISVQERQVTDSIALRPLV
# T5: human TNFR2 (human, UniProt P20333 23-461)
# T5 construct: whole, on cells
# T5 sequence (looked up): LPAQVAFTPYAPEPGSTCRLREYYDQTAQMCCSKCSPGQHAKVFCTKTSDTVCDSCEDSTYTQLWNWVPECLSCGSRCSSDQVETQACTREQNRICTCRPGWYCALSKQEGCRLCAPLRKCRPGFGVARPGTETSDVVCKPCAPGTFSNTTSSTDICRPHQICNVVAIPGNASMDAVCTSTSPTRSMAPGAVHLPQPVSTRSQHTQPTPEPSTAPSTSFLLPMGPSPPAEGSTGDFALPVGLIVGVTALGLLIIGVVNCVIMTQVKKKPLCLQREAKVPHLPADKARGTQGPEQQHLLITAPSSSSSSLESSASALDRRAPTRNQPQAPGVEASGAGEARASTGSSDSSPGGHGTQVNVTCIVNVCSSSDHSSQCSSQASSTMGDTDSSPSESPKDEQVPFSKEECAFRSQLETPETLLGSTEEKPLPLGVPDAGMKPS
# T6: cynomolgus monkey CD40 (cynomolgus monkey, UniProt P25942 21-193 (human entry), limits assumed)
# T6 chain: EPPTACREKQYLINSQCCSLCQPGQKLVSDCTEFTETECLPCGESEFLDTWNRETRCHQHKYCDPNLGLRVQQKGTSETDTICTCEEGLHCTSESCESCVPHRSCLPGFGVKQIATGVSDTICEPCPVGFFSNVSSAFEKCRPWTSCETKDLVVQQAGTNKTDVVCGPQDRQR
# B1: 39C2 (antibody, IgG4, V domains shown)
# VH: QVQLVQSGTEVKKPGASVKVSCKASGYTFPGYYMHWVRQAPGQGLEWMGWINPDSGGTKYTQKFQGRVTLTRDASVSTAYIDLNRLRSDDTAVYYCARERCRTTNCYLDYWGQGSLVTVSS
# VL: QSALTQPASVSGSPGQSITISCTGTSSDVGNYNLVSWYQQHPGKAPKLMIYEVNRRPSGVSNRFSGSKSGNTASLTISGLQAEDEAEYYCCSYAGRDTFVVFGGGTKLTVLG
# notes: also called 4887-1
# B2: 4G7 (antibody, IgG4, V domains shown)
# VH: QVQLVQSGAEVKKPGASVKVSCKASGYTFAGYYMHWVRQAPGQGLEWMGWINPDSGGTNFAQQFQGRVTMTRDTSISTAYMEVSRLRSDDTAVFYCAREKITMTGIYFDYWGQGTLVTVSS
# VL: DIQMTQSPSSLSASVGDILTITCRASQNITTYLNWYQQKPGKAPNLLISAASRLRSGVPSRFSGSGSGTDFTLTISSLQPVDFTTFYCQQTFTTPWTFGQGTKVEIKR
# notes: also called 4869-1
# B3: 30A12 (antibody, IgG4, V domains shown)
# VH: EVQLLESGGGLVQPGGSLRLSCAASGFTFSRNAMSWVRQAPGKGLEWVSATGGSGISTYYADSVKGRFTISRDNSKNTLYLQMNSLRAEDTAVYYCARGYSNSWWYFDYWGQGTLVTVSS
# VL: QSALTQPASVSGSPGQSITISCTGTSSDVGNYNLVSWYQQHPGKAPKLMIFEVNQRPSGVSNRFSGSKSGTTASLTISGLQAADEADYFCCSYTTSSTYVIFGGGTKLTVLG
# notes: also called 4878-1
# Molecular target: T1, human TNFR1
# Assay: flow cytometry, HEK293 transfectants
# Procedure: (§1) The binding affinity of anti-human CD40 antibodies to human and cynomolgus monkey CD40 was measured by Octet assay (Table 3), quantifying association rate (Kon), disassociation rate (Kdis), and equilibrium binding constant (KD). Cross-reactivity of anti-CD40 antibodies to related TNF receptor superfamily (TNFRSF) members was evaluated by expressing human TNFR1, TNFR2, TNFR10, or TNFR14 on HEK293 cells by transient transfection of expression vectors encoding these genes. Binding of indicated anti-human CD40 antibody to these transfected cells was determined by flow cytometry. […] Cross-reactivity of anti-CD40 antibodies to cynomolgus monkey and mouse CD40 was evaluated by expressing cynomolgus monkey or mouse CD40 on HEK293 cells by transient transfection of expression vectors encoding these genes. Binding of indicated anti-human CD40 antibody to cells overexpressing cynomolgus monkey and mouse CD40 was determined by flow cytometry.
row,binding result,Binder
1,no binding,B1
2,no binding,B2
3,no binding,B3

# Molecular target: T7, human TNFR10 (human)
# T7 construct: whole, on cells; Name as printed is ambiguous (TNFRSF10A-D)
# Assay: flow cytometry, HEK293 transfectants vs control cells
# Procedure: as §1
row,fold over control (gMFI),Binder
1,0.86 fold,B1
2,0.87 fold,B2
3,0.91 fold,B3

# Molecular target: T1, human TNFR1
# Assay: as above
# Procedure: as §1
row,fold over control (gMFI),Binder
1,1 fold,B1
2,0.97 fold,B2
3,1.07 fold,B3

# Molecular target: T2, cynomolgus monkey CD40 on cells
# Assay: as above
# Procedure: as §1
row,fold over control (gMFI),Binder
1,87 fold,B1
2,57 fold,B2
3,71 fold,B3

# Molecular target: T3, human TNFR14
# Assay: as above
# Procedure: as §1
row,fold over control (gMFI),Binder
1,0.89 fold,B1
2,0.89 fold,B2
3,0.96 fold,B3

# Molecular target: T4, mouse CD40 on cells
# Assay: as above
# Procedure: as §1
row,fold over control (gMFI),Binder
1,0.9 fold,B1
2,0.9 fold,B2
3,1.3 fold,B3

# Molecular target: T5, human TNFR2
# Assay: as above
# Procedure: as §1
row,fold over control (gMFI),Binder
1,0.9 fold,B1
2,0.9 fold,B2
3,0.89 fold,B3

# Molecular target: human CD40 (human, UniProt P25942 21-193, limits assumed)
# Sequence (P25942 21-193 limits assumed): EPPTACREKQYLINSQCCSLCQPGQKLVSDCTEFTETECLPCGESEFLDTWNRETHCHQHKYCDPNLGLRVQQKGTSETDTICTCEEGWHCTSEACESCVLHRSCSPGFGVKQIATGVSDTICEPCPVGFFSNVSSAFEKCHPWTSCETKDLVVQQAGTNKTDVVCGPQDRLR
# Assay: Octet
# Procedure: as §1
Kd,koff,kon,Binder
1.02 nM,0.000614 s⁻¹,599000 M⁻¹ s⁻¹,B1
0.88 nM,0.00108 s⁻¹,1.23e+06 M⁻¹ s⁻¹,B2
0.69 nM,0.000368 s⁻¹,533000 M⁻¹ s⁻¹,B3

# Molecular target: T6, cynomolgus monkey CD40
# Assay: Octet
# Procedure: as §1
Kd,koff,kon,Binder
0.73 nM,0.000376 s⁻¹,518000 M⁻¹ s⁻¹,B1
1.72 nM,0.00193 s⁻¹,1.13e+06 M⁻¹ s⁻¹,B2
0.56 nM,0.000306 s⁻¹,544000 M⁻¹ s⁻¹,B3

# Molecular target: human CD40 on cells (human, UniProt P25942 21-277)
# Assay: cell-based or functional assay
"human B cell proliferation, no crosslinking, EC50","human B cell proliferation, no crosslinking, Max Fold Change","human B cell proliferation, with protein G crosslinking, EC50","human B cell proliferation, with protein G crosslinking, Max Fold Change",Binder
> 16.7 nM,1.24 fold,0.529 nM,23 fold,B1
> 16.7 nM,1.19 fold,0.43 nM,18.1 fold,B2
> 16.7 nM,1.45 fold,0.362 nM,23.8 fold,B3
